Assay results from paper PMC4851077.

Experiments:
[1] = target: glucose oxidase (GOD, E.C. 1.1.3.4, type VII, MW ≈ 160,000) (UniProt P13006); assay: quartz crystal microbalance (QCM); layer-by-layer adsorption on Au/MPS/PDDA-coated quartz resonator; alternate immersion in Con A (1 mg/mL, pH 7.0) and GOD (1 mg/mL, pH 7.0) for 20 min each, 0.1 M Tris-HCl with 0.1 M NaCl, 1 mM MnCl2, 1 mM CaCl2; washed, dried, frequency measured in air
[2] = target: concanavalin A extracted from Jack beans (Con A, type V, MW ≈ 104,000) (Jack bean); assay: as above

average QCM frequency decrease for each layer [1] | average QCM frequency decrease for each layer [2] | Substance
82 Hz | – | concanavalin A extracted from Jack beans (Con A, type V, MW ≈ 104,000) (natural protein)
– | 58 Hz | glucose oxidase (GOD, E.C. 1.1.3.4, type VII, MW ≈ 160,000) (from UniProt P13006 17-605) (enzyme)
